Measured values as given in patent US20100260668A1 (published 2010).

B1: DVD495 (bispecific antibody, human IgG1, kappa)
heavy: not shown
light: DIQMTQSSSYLSVSLGGRVTITCKASDHINNWLAWYQQKPGNAPRLLISGATSLETGVPSRFSGSGSGKDYTLSITSLQTEDVATYYCQQYWSIPLTFGAGTKLELKRTVAAPSVFIFPPDIQMTQSPSSLSASVGDRVTITCRASQDVSTAVAWYQQKPGKAPKLLIYSASFLYSGVPSRFSGSGSGTDFTLTISSLQPEDFATYYCQQSYTTPPTFGQGTKVEIKRTVAAPSVFIFPPSDEQLKSGTASVVCLLNNFYPREAKVQWKVDNALQSGNSQESVTEQDSKDSTYSLSSTLTLSKADYEKHKVYACEVTHQGLSSPVTKSFNRGEC
notes: DVD-Ig; N-term; VD AB072 (DLL4), C-term; VD AB070 (VEGF); HC linker long, LC linker long; also called DVD495H; DVD495L
B2: DVD519 (bispecific antibody, human IgG1, kappa, lambda)
heavy: not shown
light: QAVVTQESALTTSPGETVTLTCRSSTGAVTTSNYANWVQEKPDHLFTGLIGGTNNRAPGVPARFSGSLIGDKAALTITGAQTEDEAIYFCALWYSNHWVFGGGTKLTVLGQPKAAPSVTLFPPDIQMTQSPSSLSASVGDRVTITCRASQDVSTAVAWYQQKPGKAPKLLIYSASFLYSGVPSRFSGSGSGTDFTLTISSLQPEDFATYYCQQSYTTPPTFGQGTKVEIKRTVAAPSVFIFPPSDEQLKSGTASVVCLLNNFYPREAKVQWKVDNALQSGNSQESVTEQDSKDSTYSLSSTLTLSKADYEKHKVYACEVTHQGLSSPVTKSFNRGEC
notes: DVD-Ig; N-term; VD AB073 (DLL4), C-term; VD AB070 (VEGF); HC linker long, LC linker long; also called DVD519H; DVD519L
B3: DVD531 (bispecific antibody, human IgG1, kappa, lambda)
heavy: not shown
light: B2 light
notes: DVD-Ig; N-term; VD AB073 (DLL4), C-term; VD AB070 (VEGF); HC linker short, LC linker long; also called DVD531H; DVD531L
B4: DVD443 (bispecific antibody, human IgG1, kappa)
heavy: not shown
light: DIVMTQSPDSLAVSLGERATISCRASESVDNYGISFMKWFQQKPGQPPKLLIYAASNQGSGVPDRFSGSGSGTDFTLTISSLQAEDVAVYYCQQSKEVPWTFGGGTKVEIKRTVAAPDIQMTQSPSSLSASVGDRVTITCRASQDVSTAVAWYQQKPGKAPKLLIYSASFLYSGVPSRFSGSGSGTDFTLTISSLQPEDFATYYCQQSYTTPPTFGQGTKVEIKRTVAAPSVFIFPPSDEQLKSGTASVVCLLNNFYPREAKVQWKVDNALQSGNSQESVTEQDSKDSTYSLSSTLTLSKADYEKHKVYACEVTHQGLSSPVTKSFNRGEC
notes: DVD-Ig; N-term; VD AB069 (DLL4), C-term; VD AB070 (VEGF); HC linker short, LC linker short; also called DVD443H; DVD443L
B5: DVD455 (bispecific antibody, human IgG1, kappa)
heavy: not shown
light: B4 light
notes: DVD-Ig; N-term; VD AB069 (DLL4), C-term; VD AB070 (VEGF); HC linker long, LC linker short; also called DVD455H; DVD455L
B6: DVD513 (bispecific antibody, human IgG1, kappa)
heavy: not shown
light: QAVVTQESALTTSPGETVTLTCRSSTGAVTTSNYANWVQEKPDHLFTGLIGGTNNRAPGVPARFSGSLIGDKAALTITGAQTEDEAIYFCALWYSNHWVFGGGTKLTVLGQPKAAPDIQMTQSPSSLSASVGDRVTITCRASQDVSTAVAWYQQKPGKAPKLLIYSASFLYSGVPSRFSGSGSGTDFTLTISSLQPEDFATYYCQQSYTTPPTFGQGTKVEIKRTVAAPSVFIFPPSDEQLKSGTASVVCLLNNFYPREAKVQWKVDNALQSGNSQESVTEQDSKDSTYSLSSTLTLSKADYEKHKVYACEVTHQGLSSPVTKSFNRGEC
notes: DVD-Ig; N-term; VD AB073 (DLL4), C-term; VD AB070 (VEGF); HC linker short, LC linker short; also called DVD513H; DVD513L
B7: DVD525 (bispecific antibody, human IgG1, kappa)
heavy: not shown
light: B6 light
notes: DVD-Ig; N-term; VD AB073 (DLL4), C-term; VD AB070 (VEGF); HC linker long, LC linker short; also called DVD525H; DVD525L
B8: DVD449 (bispecific antibody, human IgG1, kappa)
heavy: not shown
light: DIVMTQSPDSLAVSLGERATISCRASESVDNYGISFMKWFQQKPGQPPKLLIYAASNQGSGVPDRFSGSGSGTDFTLTISSLQAEDVAVYYCQQSKEVPWTFGGGTKVEIKRTVAAPSVFIFPPDIQMTQSPSSLSASVGDRVTITCRASQDVSTAVAWYQQKPGKAPKLLIYSASFLYSGVPSRFSGSGSGTDFTLTISSLQPEDFATYYCQQSYTTPPTFGQGTKVEIKRTVAAPSVFIFPPSDEQLKSGTASVVCLLNNFYPREAKVQWKVDNALQSGNSQESVTEQDSKDSTYSLSSTLTLSKADYEKHKVYACEVTHQGLSSPVTKSFNRGEC
notes: DVD-Ig; N-term; VD AB069 (DLL4), C-term; VD AB070 (VEGF); HC linker long, LC linker long; also called DVD449H; DVD449L
B9: DVD461 (bispecific antibody, human IgG1, kappa)
heavy: not shown
light: B8 light
notes: DVD-Ig; N-term; VD AB069 (DLL4), C-term; VD AB070 (VEGF); HC linker short, LC linker long; also called DVD461H; DVD461L
B10: DVD489 (bispecific antibody, human IgG1, kappa, L234A L235A)
heavy: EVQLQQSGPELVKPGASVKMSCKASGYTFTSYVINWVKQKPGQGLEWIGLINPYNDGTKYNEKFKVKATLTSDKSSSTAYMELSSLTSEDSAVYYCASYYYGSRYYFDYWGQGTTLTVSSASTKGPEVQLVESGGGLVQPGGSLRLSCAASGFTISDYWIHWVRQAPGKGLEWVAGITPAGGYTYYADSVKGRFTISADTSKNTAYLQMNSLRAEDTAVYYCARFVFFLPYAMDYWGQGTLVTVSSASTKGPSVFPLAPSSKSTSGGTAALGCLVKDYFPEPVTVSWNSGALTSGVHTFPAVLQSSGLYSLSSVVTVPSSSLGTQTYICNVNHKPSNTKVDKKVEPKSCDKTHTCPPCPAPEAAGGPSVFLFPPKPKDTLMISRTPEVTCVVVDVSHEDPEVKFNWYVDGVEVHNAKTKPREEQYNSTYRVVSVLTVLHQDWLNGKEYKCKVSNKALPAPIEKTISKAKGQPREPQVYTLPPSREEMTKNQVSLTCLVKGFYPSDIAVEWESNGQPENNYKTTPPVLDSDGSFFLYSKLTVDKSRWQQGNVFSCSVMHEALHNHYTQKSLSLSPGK
light: DIQMTQSSSYLSVSLGGRVTITCKASDHINNWLAWYQQKPGNAPRLLISGATSLETGVPSRFSGSGSGKDYTLSITSLQTEDVATYYCQQYWSIPLTFGAGTKLELKRTVAAPDIQMTQSPSSLSASVGDRVTITCRASQDVSTAVAWYQQKPGKAPKLLIYSASFLYSGVPSRFSGSGSGTDFTLTISSLQPEDFATYYCQQSYTTPPTFGQGTKVEIKRTVAAPSVFIFPPSDEQLKSGTASVVCLLNNFYPREAKVQWKVDNALQSGNSQESVTEQDSKDSTYSLSSTLTLSKADYEKHKVYACEVTHQGLSSPVTKSFNRGEC
notes: DVD-Ig; N-term; VD AB072 (DLL4), C-term; VD AB070 (VEGF); HC linker short, LC linker short; also called DVD489H; DVD489L
B11: DVD501 (bispecific antibody, human IgG1, kappa)
heavy: not shown
light: B10 light
notes: DVD-Ig; N-term; VD AB072 (DLL4), C-term; VD AB070 (VEGF); HC linker long, LC linker short; also called DVD501H; DVD501L

Target: T1, VEGF (UniProt P15692-4 27-191)
T1 construct: Bought reagent; also called vascular endothelial growth factor
Assay: SPR (Biacore), DVD-Ig captured, VEGF in solution

T1 sequence (P15692 other isoform, or with tags, fused parts or gaps limits assumed): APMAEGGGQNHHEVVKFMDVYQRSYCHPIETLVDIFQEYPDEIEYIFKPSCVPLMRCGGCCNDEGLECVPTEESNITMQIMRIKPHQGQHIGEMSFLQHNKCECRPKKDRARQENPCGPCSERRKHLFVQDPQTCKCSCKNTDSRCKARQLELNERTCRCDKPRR

Binder | Kd | koff | kon
B1 | 0.645 nM | 0.000204 s⁻¹ | 316000 M⁻¹ s⁻¹
B2 | 0.223 nM | 0.00522 s⁻¹ | 2.35e+07 M⁻¹ s⁻¹
B3 | 0.584 nM | 0.000442 s⁻¹ | 756000 M⁻¹ s⁻¹
B4 | 1.71 nM | 0.000267 s⁻¹ | 157000 M⁻¹ s⁻¹
B5 | 0.46 nM | 8.15e-05 s⁻¹ | 177000 M⁻¹ s⁻¹
B6 | 1.24 nM | 0.000497 s⁻¹ | 400000 M⁻¹ s⁻¹
B7 | 0.447 nM | 0.000483 s⁻¹ | 1.08e+06 M⁻¹ s⁻¹
B8 | 0.903 nM | 0.000208 s⁻¹ | 230000 M⁻¹ s⁻¹
B9 | 0.75 nM | 0.000202 s⁻¹ | 269000 M⁻¹ s⁻¹
B10 | 1.76 nM | 0.000365 s⁻¹ | 207000 M⁻¹ s⁻¹
B11 | 0.821 nM | 0.000175 s⁻¹ | 213000 M⁻¹ s⁻¹
